# B1: H12B12: natural Gardnerella prophage endolysin from strain 3549624 (protein)
# chain: MSKKGIDVSVWQGDIDFNAVKASGVEFVIIRAGYGIGHKDKWFEENYRKAKTAGLDVGSYWYSYASSAGEVALEAQSCVNILSGKSFEYPVYFDLEEKSQLNRGRDFCDSLITSFCNKLEACGYYAGFYTSLSVANNLVSSHVRDRYALWIAQWNTHCSYQGSYGLWQYSSSGSVNGIAGRVDMDYAYVDYPSVIKNAGLNGYQNGGSYTAPQTSSIDEVAREVINGDWGNGIERKNRLTSAGYDYTSVQNKVNELLGVKAYRKSVDELAREVIRGTWGNGKTRKQRLTQAGYDYNAVQKRVNELL
# modifications: EL12_strain_3549624_non-prophage
# B2: H11B11: natural Gardnerella prophage endolysin from strain JCP8017A (protein)
# chain: MSKRGIDVSVWQGDIDFNAVKASGVEFVIIRAGYGIGHKDKWFEQNYRKAKTTGLDVGAYWYSYASSAGEAAEEAQSCVNILSGKSFEYPVYFDLEEKSQLNRGRDFCDSLITSFCNKLETYGYYAGFYTSLSVANNLVSSHVRDRYALWIAQWNTHCDYQGSYGLWQYSSSGSVDGIAGRVDMDYTYVDYPSVIKKAGLNGYKNGGSYTAPQTSSIDEVAREVINGDWGNGNERKNRLTSAGYDYTSVQNKVNELLGVKAYRKSVDELAREVIRGTWGNGSTRKQRLTQAGYDYDAVQKRVNELL
# modifications: EL11_strain_JCP8017A
# notes: natural Gardnerella prophage endolysin from strain JCP8017A
# Key:
# [1] = system: G. leopoldii strain Gv_11; assay: Quantitative reduction in viable CFU assay in bacterial suspension; format: cell-based, Gardnerella leopoldii; details: 5 hours, pH 5.0, anaerobic, 10 ul endolysin (0.2 mg/ml where possible) + 90 ul 5e7 CFU/ml, average of triplicate
# Method: The lysis activity on the four main species of Gardnerella of 91 constructs (natural and domain-swapped endolysins) was quantitatively assessed using the method described in Reference Example 2. Briefly, 90 ul 5e7 CFU/ml of the indicated strain were incubated for 5 hours at pH 5.0 under anaerobic conditions with 10 ul endolysin (concentration adjusted to 0.2 mg/ml where possible, see Table 4).
# The results are shown in FIGS. 8A to 8D together with Tables 5A to 5C. In FIGS. 8A to 8D, the logarithmic Y axis depicts the count of surviving cells. The dotted line indicates the limit of detection (LOD) given by plating of 2 ul of the reaction mix (500 CFU/ml). Each combination of the natural 10 H-domains and the natural 9 B-regions was assessed, including the natural endolysins (H1B1, H2B2, H3B3, etc.), plus H6B6. […] The activity of each construct was measured on each of the 4 main Gardnerella species G. vaginalis sensu stricto, G. leopoldii, G. piotii, and G. swidsinkii. All conditions have been measured in triplicate. The survival after 5 hours incubation at pH 5.0 under anaerobic conditions with endolysins vs. buffer was measured by quantitative plating. The values indicate the log 10 of the ratio of surviving CFU for treated vs. untreated cells. The average of the triplicate measurements is used. In tables 5A and 5B, high negative log 10 values, e.g. −6.7, −5.5, −4.8 etc. are associated with high enzymatic activity, while log 10 values closer to zero or even positive log 10 values are associated with low or no enzymatic activity. […] Inversely, a reduction value of −3.7 means a 10^3.7-fold (=5012-fold) reduction of viable CFU in treated sample vs. untreated control.
# (§1) Gardnerella cells were recovered from cryo stock by plating on Chocolate Agar plates (Beckton Dickinson) and incubating for 48 h at 37° C. under anaerobic conditions. For Lactobacilli, BD Schaedler/5% sheep blood agar plates were used instead. Colonies were scraped from the plate, resuspended in Hardy Broth or NYC-III-HS-5.0 at the pH as indicated, and the suspension adjusted to OD (610 or 620 nm as indicated) 0.1. It has to be noted that two Tecan Microplate readers, having respectively a 610 nm or 620 nm filter, have been used interchangeably in the experiments. Although it doesn't make any difference for the experiments, the exact wavelength used is specified in each example. If not stated otherwise, 90 μl cell suspension was mixed with 10 μl endolysin solution, for the different species/endolysin combinations, in 384-well plates. OD(610-620 nm as indicated) was measured at the beginning of the reaction and at the end, either as two measurement points or as a continuous kinetic in a Tecan F200 Microplate reader. The reactions were incubated for 5 hours (or otherwise the time indicated) at 37° C. under anaerobic, micro-aerophilic or aerobic conditions as indicated. Anaerobic conditions intend that oxygen was fully depleted from the container in which the bacteria are incubated (Sigma-Aldrich anaerobic jar or sealable lunch box) with an anaerobic sachet, and the lack of oxygen was confirmed with an anaerobic indicator inside the container. Where micro-aerophilic conditions are indicated, the candle-in-a-jar method was used (tea candle lit in an appropriate sealable container, which reduces oxygen levels until the flame dies out). Then each well was diluted in 5 steps (10^−1 to 10^−5) using 96-U-well bottom plates, and 2 μl of each dilution of each reaction mix are plated on BD Chocolate agar plates or BD Schaedler/5% sheep blood agar plates for Gardnerella and Lactobacilli, respectively, for detecting and quantifying surviving CFU. Detection plates were incubated at 37° C. for 48 hours under anaerobic conditions.
# Gardnerella cells = assay: Turbidity reduction (OD) assay of Gardnerella suspensions; format: cell-based; details: Gv_10 pH 6.0, Gv_17 pH 7.0, Gv_23 pH 7.4; aerobic, room temperature; vs buffer
# Method: FIGS. 4A to 4C show three enzymatic activity assays where the enzymatic activity of natural Gardnerella prophage endolysins of the present disclosure is measured by detecting the change in turbidity of a suspension of Gardnerella cells. In FIG. 4A, the enzymatic activity of the endolysins is measured by detecting the change in turbidity of a suspension of the G. leopoldii strain Gv_10 at pH 6.0. In FIG. 4B, the enzymatic activity of the endolysins is measured by detecting the change in turbidity of a suspension of the G. piotii strain Gv_17 at pH 7.0. In FIG. 4C, the enzymatic activity of the endolysins is measured by detecting the change in turbidity of a suspension of the G. swidsinskii strain Gv_23 at pH 7.4. Treatment was conducted in a medium adjusted to the appropriate pH in a photometric cuvette against buffer. Then, the change in turbidity was assessed by measuring the optical density (OD) at 600 nm. As a result, the drop in turbidity was more pronounced for the endolysin treated groups than for the buffer, indicating enzymatic activity.
# To test the activity of the purified endolysins, the turbidity change of Gardnerella suspensions (see Table 2) was measured at 610-620 nm using essentially the method described in Reference Example 2, where 95 ul of bacterial suspension in Hardy Broth at the indicated pH was mixed with 5 ul of endolysin solution in a photometric cuvette under aerobic conditions at room temperature. In turbidity reduction assays, a decrease in light scattering (i.e., turbidity reduction) of a suspension of live cells can be used in a spectrophotometer to assay the activity of peptidoglycan hydrolases. The reduction in optical density over time (minutes) can be used to calculate a rate of hydrolysis. Results are compared to a “no-enzyme added, buffer only” control preparation treated identically for the same period of time. In this manner, a specific activity of the enzyme preparation can be reported as ΔOD/time/ul lysin protein. […] As explained above, due to the low content of peptidoglycan in the cell wall, the fact that a peptidoglycan-degrading enzyme such as the identified endolysins could efficiently lyse the bacterial cell walls was an unexpected and surprising discovery.
# as §1, with “Then each well was diluted in 5 steps (10^−1 to 10^−5) using 96-U-well bottom plates, and 2 μl of each dilution of each reaction mix are plated on BD Chocolate agar plates or BD Schaedler/5% sheep blood agar plates for Gardnerella and Lactobacilli, respectively, for detecting and quantifying surviving CFU. Detection plates were incubated at 37° C. for 48 hours under anaerobic conditions.” left out
molecule,measurement,setting,value
B1,log 10 of the ratio of surviving CFU for treated vs. untreated cells,[1],−1.0 log 10
same,enzymatic activity by drop in turbidity (capacity to lyse Gardnerella cell walls),Gardnerella cells,active
B2,log 10 of the ratio of surviving CFU for treated vs. untreated cells,[1],−1.6 log 10
same,enzymatic activity by drop in turbidity (capacity to lyse Gardnerella cell walls),Gardnerella cells,active

# Reference: patent US20220315908A1, “NOVEL GARDNERELLA ENDOLYSINS AND USES THEREOF” (priority 2019, published 2022)
